Target: Bcl-2 recombinant protein, P10415
Assay: in vitro binding of Bcl-2 recombinant protein to immunoprecipitated Flag-GSDMD, western blot with band values printed under the Bcl-2 blot
Conditions: chain shown with the change; incubated for one hour, then heavily washed; parent: 1

Sequence of Bcl-2 recombinant protein, P10415 (P10415 whole entry): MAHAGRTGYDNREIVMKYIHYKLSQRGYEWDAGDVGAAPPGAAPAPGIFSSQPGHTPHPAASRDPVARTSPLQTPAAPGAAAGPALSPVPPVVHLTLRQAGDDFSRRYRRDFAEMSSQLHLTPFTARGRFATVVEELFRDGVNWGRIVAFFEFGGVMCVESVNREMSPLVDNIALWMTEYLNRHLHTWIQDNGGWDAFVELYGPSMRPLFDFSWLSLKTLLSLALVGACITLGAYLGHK

B1: Flag-GSDMD full length, P57764 L150Q (protein)
chain: MGSAFERVVRRVVQELDHGGEFIPVTSLQSSTGFQPYCLVVRKPSSSWFWKPRYKCVNLSIKDILEPDAAEPDVQRGRSFHFYDAMDGQIQGSVELAAPGQAKIAGGAAVSDSSSTSMNVYSLSVDPNTWQTLLHERHLRQPEHKVLQQQRSRGDNVYVVTEVLQTQKEVEVTRTHKREGSGRFSLPGATCLQGEGQGHLSQKKTVTIPSGSTLAFRVAQLVIDSDLDVLLFPDKKQRTFQPPATGHKRSTSEGAWPQLPSGLSMMRCLHNFLTDGVPAEGAFTEDFQGLRAEVETISKELELLDRELCQLLLEGLEGVLRDQLALRALEEALEQGQSLGPVEPLDGPAGAVLECLVLSSGMLVPELAIPVVYLLGALTMLSETQHKLLAEALESQTLLGPLELVGSLLEQSAPWQERSTMSLPPGLLGNSWGEGAPAWVLLDECGLELGEDTPHVCWEPQAQGRMCALYASLALLSGLSQEPH
- ratio to parent: 0.45

From PMC6901440
